Experimental data: publication PMC547899

Biological target: SMC3-474/702 hinge domain (GAL4:SMC3 fusion in pBIND) (UniProt Q9CW03)
Assay: two-hybrid; mammalian two-hybrid (Promega Checkmate) in 293 cells: SMC3-474/702 in pBIND, SMC1-474/663 in pACT, pG5/luc reporter, with Hinderin-V5 expression vector (0.3 or 1 ug/ml) or empty pcDNA3.1; luciferase after 48 h, corrected by Renilla

UniProt Q9CW03, sequence (Q9CW03 474-702): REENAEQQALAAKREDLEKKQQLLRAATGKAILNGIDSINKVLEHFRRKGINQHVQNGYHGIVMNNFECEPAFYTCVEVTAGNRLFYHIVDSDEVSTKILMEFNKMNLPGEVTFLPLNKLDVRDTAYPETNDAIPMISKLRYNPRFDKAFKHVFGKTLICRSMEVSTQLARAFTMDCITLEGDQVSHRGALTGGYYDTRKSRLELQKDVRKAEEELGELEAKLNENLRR

“Hinderin-V5 (complete Hinderin coding region with V5 tag) (from UniProt Q86T90 1-577) (natural protein)” gave an SMC1/SMC3 interaction (luciferase activity) in cells overexpressing Hinderin, percent of 34%.
